Test results taken from patent publication US20210032313A1 (Daiichi Sankyo, published 2021).
Substitutions are numbered along the chain they refer to. One block for each binder: values may come before it.

Legend:
[1] = target: T1, KLK12 (human, UniProt Q9UKR0); assay: fluorogenic peptide substrate cleavage, 1 µM inhibitor
T1 construct: commercial enzyme (R&D Systems, 3095-SE); 0.1 µg/mL in the assay; substrate Boc-Val-Pro-Arg-AMC 100 µM; also called Human KLK12; hKLK12
T1 sequence (protease, looked up): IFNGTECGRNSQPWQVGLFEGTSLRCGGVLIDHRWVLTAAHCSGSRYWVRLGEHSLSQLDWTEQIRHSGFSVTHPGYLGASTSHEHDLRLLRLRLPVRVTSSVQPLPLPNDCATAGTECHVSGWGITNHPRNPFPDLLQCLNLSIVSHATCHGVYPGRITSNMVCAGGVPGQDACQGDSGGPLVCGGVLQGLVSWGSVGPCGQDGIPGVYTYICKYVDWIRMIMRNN
Procedure: FIG. 3G includes graphs to evaluate the cross-reactivity of each inhibitory peptide with proteases, using the degradation of a peptide substrate as an index. For evaluating the Human KLK7 inhibitory activity, hKLK7 with a final concentration of 1 μg/mL and a substrate peptide Mca-Arg-Pro-Lys-Pro-Val-Glu-Nval-Trp-Arg-Lys (Dnp)-NH₂ (R&D Systems, Inc., ES002) with a final concentration of 20 μM were used. For evaluating the Human KLK8 inhibitory activity, hKLK8 (UniProt: 060259, prepared by the inventors) with a final concentration of 5 nM and a substrate peptide Boc-Val-Pro-Arg-AMC (R&D Systems, Inc., ES011) with a final concentration of 100 μM were used. For evaluating the Human KLK12 inhibitory activity, hKLK12 (R&D Systems, Inc., 3095-SE) with a final concentration of 0.1 μg/mL and a substrate peptide Boc-Val-Pro-Arg-AMC (R&D Systems, Inc., ES011) with a final concentration of 100 μM were used.
(§1) The specificities for other proteases were evaluated using the degradation of a substrate peptide as an index. As in the method described in (3-1), 25 μL each of a protease and a sample diluted with an assay buffer were mixed (to a final concentration of sample of 1 μM), followed by a reaction at 37° C. for 20 minutes. Thereafter, 50 μL of a substrate diluted with an assay buffer was added thereto, and the fluorescence signal was measured using Enspire (PerkinElmer). An assay buffer (50 mM Tris, 150 mM NaCl, pH 8.0) was used for the evaluation of the protease activity, and a PROTEOSAVE® SS96F black plate (Sumitomo Bakelite Co., Ltd.) was used for the reaction and the measurement. The combinations of the protease and the substrate used for the evaluation of the specificity were as follows.

[2] = target: bChymotrypsin; assay: as above
Procedure: FIG. 3A includes graphs to evaluate the cross-reactivity of each inhibitory peptide with proteases, using the degradation of a peptide substrate as an index. For evaluating the Bovine trypsin inhibitory activity, trypsin (Pierce, 20233) with a final concentration of 5 nM and a substrate peptide Boc-Val-Pro-Arg-AMC (R&D Systems, Inc., ES011) with a final concentration of 100 μM were used. For evaluating the Human trypsin inhibitory activity, trypsin (Sigma-Aldrich Co. LLC, T6424) with a final concentration of 1 nM and a substrate peptide Boc-Val-Pro-Arg-AMC (R&D Systems, Inc., ES011) with a final concentration of 100 μM were used. For evaluating the Bovine α-chymotrypsin inhibitory activity, chymotrypsin (Worthington Biochemical Corporation, LS001434) with a final concentration of 10 nM and a substrate peptide Suc-Leu-Leu-Val-Tyr-MCA (PEPTIDE […], INC., 3120-v) with a final concentration of 100 μM were used.
as §1

binding result [1]: binds
binding result [2]: binds
B1: KLK5/KLK14 inhibitory peptide K51069 (peptide)
chain: GPQFGLFSKYRTPNCSQVVETYCNRDYDPVCGSDMSTYANECTLCMKIREGGHNIKIIRNGPCGG
notes: SPINK2 mutant peptide made in E. coli

binding result [1]: binds
binding result [2]: binds
B2: KLK5/KLK14 inhibitory peptide K50015 (peptide)
chain: B1 chain with S16Y, Q17D, V18T, V19T, E20T, T21H, N24S, D26E
notes: as for B1
